Literature values in publication PMC6451094.

Molecular target: TBP (Saccharomyces cerevisiae) (UniProt P13393)
Chain of UniProt P13393 (P13393 2-240): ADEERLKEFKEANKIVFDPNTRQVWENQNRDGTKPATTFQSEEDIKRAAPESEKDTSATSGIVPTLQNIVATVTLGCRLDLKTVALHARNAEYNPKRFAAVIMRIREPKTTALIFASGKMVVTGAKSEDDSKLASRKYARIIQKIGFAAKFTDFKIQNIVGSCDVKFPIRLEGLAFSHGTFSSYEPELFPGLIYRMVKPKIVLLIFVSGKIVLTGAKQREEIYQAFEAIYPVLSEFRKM

Kd: 1.5 nM
Substance: Mot1 (from UniProt P32333)
